According to patent publication US10005829B2, “Synthetic linear apelin mimetics for the treatment of heart failure” (priority 2012, dated 2018):
*1 amine or outer side, *2 acyl side, *3 side chain or, on linkers, in order; H or OH if unused. [ ]: non-standard residue; d: D form. Tyr(Bzl) = L-benzyl-tyrosine, O=C([C@H](Cc1ccc(OCc2ccccc2)cc1)N[*:1])[*:2]; Phe(3,4-Cl2) = N[C@@H](Cc1ccc(Cl)c(Cl)c1)C(=O)O; 2Nal = N[C@@H](Cc1ccc2ccccc2c1)C(=O)O; Cha = N[C@@H](CC1CCCCC1)C(=O)O; pGlu = O=C1CC[C@@H](C(=O)O)N1; dNle = CCCC[C@@H](N)C(=O)O; Aib = CC(C)(N)C(=O)O

T1: APJ receptor (human, UniProt P35414 1-380)
T1 sequence (looked up): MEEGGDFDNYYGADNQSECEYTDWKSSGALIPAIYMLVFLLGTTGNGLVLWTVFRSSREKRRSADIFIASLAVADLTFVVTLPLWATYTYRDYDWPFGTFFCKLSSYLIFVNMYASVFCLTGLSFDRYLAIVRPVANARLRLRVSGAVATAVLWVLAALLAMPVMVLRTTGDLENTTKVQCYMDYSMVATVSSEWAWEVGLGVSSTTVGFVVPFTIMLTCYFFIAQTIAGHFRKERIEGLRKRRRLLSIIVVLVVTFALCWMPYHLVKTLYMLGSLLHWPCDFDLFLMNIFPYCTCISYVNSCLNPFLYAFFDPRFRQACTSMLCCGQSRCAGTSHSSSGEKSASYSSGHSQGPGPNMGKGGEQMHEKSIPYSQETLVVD

B1: pE-R-P-R-L-a-H-K-G-Pip-nle-a-f-OH (peptide)
peptide: ERPRLAHKGXLAF
modifications: pE (pyroglutamic acid) at 1; D-Ala at 6; Pip (pipecolic acid) at 10; D-Nle at 11; D-Ala at 12; D-Phe at 13
B2: pE-R-P-R-L-(D-Leu)-H-K-G-P-nle-a-f-OH (peptide)
peptide: [pGlu]RPRL[dL]HKGP[dNle][dA][dF]-OH
SMILES: CCCC[C@@H](NC(=O)[C@@H]1CCCN1C(=O)CNC(=O)[C@H](CCCCN)NC(=O)[C@H](Cc1c[nH]cn1)NC(=O)[C@@H](CC(C)C)NC(=O)[C@H](CC(C)C)NC(=O)[C@H](CCCNC(=N)N)NC(=O)[C@@H]1CCCN1C(=O)[C@H](CCCNC(=N)N)NC(=O)[C@@H]1CCC(=O)N1)C(=O)N[C@H](C)C(=O)N[C@H](Cc1ccccc1)C(=O)O
B3: pE-R-P-R-L-k-H-K-G-P-nle-a-f-OH (peptide)
peptide: [pGlu]RPRL[dK]HKGP[dNle][dA][dF]-OH
SMILES: CCCC[C@@H](NC(=O)[C@@H]1CCCN1C(=O)CNC(=O)[C@H](CCCCN)NC(=O)[C@H](Cc1c[nH]cn1)NC(=O)[C@@H](CCCCN)NC(=O)[C@H](CC(C)C)NC(=O)[C@H](CCCNC(=N)N)NC(=O)[C@@H]1CCCN1C(=O)[C@H](CCCNC(=N)N)NC(=O)[C@@H]1CCC(=O)N1)C(=O)N[C@H](C)C(=O)N[C@H](Cc1ccccc1)C(=O)O
B4: pE-R-P-R-L-s-H-K-G-P-nle-a-f-OH (peptide)
peptide: [pGlu]RPRL[dS]HKGP[dNle][dA][dF]-OH
SMILES: CCCC[C@@H](NC(=O)[C@@H]1CCCN1C(=O)CNC(=O)[C@H](CCCCN)NC(=O)[C@H](Cc1c[nH]cn1)NC(=O)[C@@H](CO)NC(=O)[C@H](CC(C)C)NC(=O)[C@H](CCCNC(=N)N)NC(=O)[C@@H]1CCCN1C(=O)[C@H](CCCNC(=N)N)NC(=O)[C@@H]1CCC(=O)N1)C(=O)N[C@H](C)C(=O)N[C@H](Cc1ccccc1)C(=O)O
B5: pE-R-P-R-L-a-H-K-G-P-nle-p-f-OH (peptide)
peptide: [pGlu]RPRL[dA]HKGP[dNle][dP][dF]-OH
SMILES: CCCC[C@@H](NC(=O)[C@@H]1CCCN1C(=O)CNC(=O)[C@H](CCCCN)NC(=O)[C@H](Cc1c[nH]cn1)NC(=O)[C@@H](C)NC(=O)[C@H](CC(C)C)NC(=O)[C@H](CCCNC(=N)N)NC(=O)[C@@H]1CCCN1C(=O)[C@H](CCCNC(=N)N)NC(=O)[C@@H]1CCC(=O)N1)C(=O)N1CCC[C@@H]1C(=O)N[C@H](Cc1ccccc1)C(=O)O
B6: pE-R-P-R-L-a-H-K-G-P-nle-(D-Leu)-f-OH (peptide)
peptide: [pGlu]RPRL[dA]HKGP[dNle][dL][dF]-OH
SMILES: CCCC[C@@H](NC(=O)[C@@H]1CCCN1C(=O)CNC(=O)[C@H](CCCCN)NC(=O)[C@H](Cc1c[nH]cn1)NC(=O)[C@@H](C)NC(=O)[C@H](CC(C)C)NC(=O)[C@H](CCCNC(=N)N)NC(=O)[C@@H]1CCCN1C(=O)[C@H](CCCNC(=N)N)NC(=O)[C@@H]1CCC(=O)N1)C(=O)N[C@H](CC(C)C)C(=O)N[C@H](Cc1ccccc1)C(=O)O
B7: pE-R-P-R-L-a-Aib-K-G-P-nle-a-f-OH (peptide)
peptide: [pGlu]RPRL[dA][Aib]KGP[dNle][dA][dF]-OH
SMILES: CCCC[C@@H](NC(=O)[C@@H]1CCCN1C(=O)CNC(=O)[C@H](CCCCN)NC(=O)C(C)(C)NC(=O)[C@@H](C)NC(=O)[C@H](CC(C)C)NC(=O)[C@H](CCCNC(=N)N)NC(=O)[C@@H]1CCCN1C(=O)[C@H](CCCNC(=N)N)NC(=O)[C@@H]1CCC(=O)N1)C(=O)N[C@H](C)C(=O)N[C@H](Cc1ccccc1)C(=O)O
B8: pE-R-P-R-L-a-F-K-G-P-nle-a-f-OH (peptide)
peptide: [pGlu]RPRL[dA]FKGP[dNle][dA][dF]-OH
SMILES: CCCC[C@@H](NC(=O)[C@@H]1CCCN1C(=O)CNC(=O)[C@H](CCCCN)NC(=O)[C@H](Cc1ccccc1)NC(=O)[C@@H](C)NC(=O)[C@H](CC(C)C)NC(=O)[C@H](CCCNC(=N)N)NC(=O)[C@@H]1CCCN1C(=O)[C@H](CCCNC(=N)N)NC(=O)[C@@H]1CCC(=O)N1)C(=O)N[C@H](C)C(=O)N[C@H](Cc1ccccc1)C(=O)O
B9: pE-R-P-R-L-a-H-K-G-P-nle-F-OH (peptide)
peptide: [pGlu]RPRL[dA]HKGP[dNle]F-OH
SMILES: CCCC[C@@H](NC(=O)[C@@H]1CCCN1C(=O)CNC(=O)[C@H](CCCCN)NC(=O)[C@H](Cc1c[nH]cn1)NC(=O)[C@@H](C)NC(=O)[C@H](CC(C)C)NC(=O)[C@H](CCCNC(=N)N)NC(=O)[C@@H]1CCCN1C(=O)[C@H](CCCNC(=N)N)NC(=O)[C@@H]1CCC(=O)N1)C(=O)N[C@@H](Cc1ccccc1)C(=O)O
B10: pE-R-P-R-L-a-H-K-G-P-nle-e-f-OH (peptide)
peptide: [pGlu]RPRL[dA]HKGP[dNle][dE][dF]-OH
SMILES: CCCC[C@@H](NC(=O)[C@@H]1CCCN1C(=O)CNC(=O)[C@H](CCCCN)NC(=O)[C@H](Cc1c[nH]cn1)NC(=O)[C@@H](C)NC(=O)[C@H](CC(C)C)NC(=O)[C@H](CCCNC(=N)N)NC(=O)[C@@H]1CCCN1C(=O)[C@H](CCCNC(=N)N)NC(=O)[C@@H]1CCC(=O)N1)C(=O)N[C@H](CCC(=O)O)C(=O)N[C@H](Cc1ccccc1)C(=O)O
B11: pE-R-P-R-(D-Leu)-S-a-K-G-P-nle-a-f-OH (peptide)
peptide: [pGlu]RPR[dL]S[dA]KGP[dNle][dA][dF]-OH
SMILES: CCCC[C@@H](NC(=O)[C@@H]1CCCN1C(=O)CNC(=O)[C@H](CCCCN)NC(=O)[C@@H](C)NC(=O)[C@H](CO)NC(=O)[C@@H](CC(C)C)NC(=O)[C@H](CCCNC(=N)N)NC(=O)[C@@H]1CCCN1C(=O)[C@H](CCCNC(=N)N)NC(=O)[C@@H]1CCC(=O)N1)C(=O)N[C@H](C)C(=O)N[C@H](Cc1ccccc1)C(=O)O
B12: pE-R-P-R-L-a-H-K-G-P-nle-r-f-OH (peptide)
peptide: [pGlu]RPRL[dA]HKGP[dNle][dR][dF]-OH
SMILES: CCCC[C@@H](NC(=O)[C@@H]1CCCN1C(=O)CNC(=O)[C@H](CCCCN)NC(=O)[C@H](Cc1c[nH]cn1)NC(=O)[C@@H](C)NC(=O)[C@H](CC(C)C)NC(=O)[C@H](CCCNC(=N)N)NC(=O)[C@@H]1CCCN1C(=O)[C@H](CCCNC(=N)N)NC(=O)[C@@H]1CCC(=O)N1)C(=O)N[C@H](CCCNC(=N)N)C(=O)N[C@H](Cc1ccccc1)C(=O)O
B13: pE-R-P-R-L-a-H-K-G-P-nle-a-y-OH (peptide)
peptide: [pGlu]RPRL[dA]HKGP[dNle][dA][dY]-OH
SMILES: CCCC[C@@H](NC(=O)[C@@H]1CCCN1C(=O)CNC(=O)[C@H](CCCCN)NC(=O)[C@H](Cc1c[nH]cn1)NC(=O)[C@@H](C)NC(=O)[C@H](CC(C)C)NC(=O)[C@H](CCCNC(=N)N)NC(=O)[C@@H]1CCCN1C(=O)[C@H](CCCNC(=N)N)NC(=O)[C@@H]1CCC(=O)N1)C(=O)N[C@H](C)C(=O)N[C@H](Cc1ccc(O)cc1)C(=O)O
B14: pE-R-P-R-L-a-H-K-G-P-nle-a-d-OH (peptide)
peptide: [pGlu]RPRL[dA]HKGP[dNle][dA][dD]-OH
SMILES: CCCC[C@@H](NC(=O)[C@@H]1CCCN1C(=O)CNC(=O)[C@H](CCCCN)NC(=O)[C@H](Cc1c[nH]cn1)NC(=O)[C@@H](C)NC(=O)[C@H](CC(C)C)NC(=O)[C@H](CCCNC(=N)N)NC(=O)[C@@H]1CCCN1C(=O)[C@H](CCCNC(=N)N)NC(=O)[C@@H]1CCC(=O)N1)C(=O)N[C@H](C)C(=O)N[C@H](CC(=O)O)C(=O)O
B15: pE-R-P-R-Cha-a-H-K-G-P-nle-a-f-OH (peptide)
peptide: [pGlu]RPR[Cha][dA]HKGP[dNle][dA][dF]-OH
SMILES: CCCC[C@@H](NC(=O)[C@@H]1CCCN1C(=O)CNC(=O)[C@H](CCCCN)NC(=O)[C@H](Cc1c[nH]cn1)NC(=O)[C@@H](C)NC(=O)[C@H](CC1CCCCC1)NC(=O)[C@H](CCCNC(=N)N)NC(=O)[C@@H]1CCCN1C(=O)[C@H](CCCNC(=N)N)NC(=O)[C@@H]1CCC(=O)N1)C(=O)N[C@H](C)C(=O)N[C@H](Cc1ccccc1)C(=O)O
B16: pE-R-P-R-(3,4-Cl2-F)-a-H-K-G-P-nle-a-f-OH (peptide)
peptide: [pGlu]RPR[Phe(3,4-Cl2)][dA]HKGP[dNle][dA][dF]-OH
SMILES: CCCC[C@@H](NC(=O)[C@@H]1CCCN1C(=O)CNC(=O)[C@H](CCCCN)NC(=O)[C@H](Cc1c[nH]cn1)NC(=O)[C@@H](C)NC(=O)[C@H](Cc1ccc(Cl)c(Cl)c1)NC(=O)[C@H](CCCNC(=N)N)NC(=O)[C@@H]1CCCN1C(=O)[C@H](CCCNC(=N)N)NC(=O)[C@@H]1CCC(=O)N1)C(=O)N[C@H](C)C(=O)N[C@H](Cc1ccccc1)C(=O)O
B17: pE-R-P-R-(2-Nal)-a-H-K-G-P-nle-a-f-OH (peptide)
peptide: [pGlu]RPR[2Nal][dA]HKGP[dNle][dA][dF]-OH
SMILES: CCCC[C@@H](NC(=O)[C@@H]1CCCN1C(=O)CNC(=O)[C@H](CCCCN)NC(=O)[C@H](Cc1c[nH]cn1)NC(=O)[C@@H](C)NC(=O)[C@H](Cc1ccc2ccccc2c1)NC(=O)[C@H](CCCNC(=N)N)NC(=O)[C@@H]1CCCN1C(=O)[C@H](CCCNC(=N)N)NC(=O)[C@@H]1CCC(=O)N1)C(=O)N[C@H](C)C(=O)N[C@H](Cc1ccccc1)C(=O)O

Biological target: T1, APJ receptor
Test: cell-based or functional assay

Row | Binder | hAPJ Ca^2+ Flux EC50
1 | B1 | 2.3 nM
2 | B2 | 155 nM
3 | B3 | 1060 nM
4 | B4 | 0.9 nM
5 | B5 | 1.1 nM
6 | B6 | 3.2 nM
7 | B7 | 2.1 nM
8 | [pGlu]RPRL[dA][dH]KGP[dNle][dA][dF]-OH [pE-R-P-R-L-a-h-K-G-P-nle-a-f-OH] | 8.8 nM
9 | B8 | 3.1 nM
10 | B9 | 66.5 nM
11 | B10 | 170 nM
12 | B11 | 386 nM
13 | B12 | 922 nM
14 | B13 | 0.9 nM
15 | B14 | 86.8 nM
16 | B15 | 2.8 nM
17 | B16 | 13.8 nM
18 | B17 | 69.2 nM
19 | ERPRLAHKGPLAX (pE at 1; D-Ala at 6; D-Nle at 11; D-Ala at 12; D-Tic at 13) [pE-R-P-R-L-a-H-K-G-P-nle-a-tic-OH] | 1.7 nM
20 | [pGlu]RPR[Tyr(Bzl)][dA]HKGP[dNle][dA][dF]-OH [pE-R-P-R-Y(Bzl)-a-H-K-G-P-nle-a-f-OH] | 121 nM
